Results from patent publication US20240209076A1 (KODIAK SCIENCES, published 2024).

Legend:
[1] = biological target: T1, human IL-6 (human, UniProt P05231 30-212); experiment: SPR Biacore, purified Ab on Protein A chip, 37 C
T1 construct: IL-6 flowed over captured antibodies
Method: (§1) Antibodies were captured on a Protein A chip (GE) by injecting 1:20 cell supernatant dilutions at 10 μL/min for 60 seconds. […] The sensor chip was regenerated by a 60 seconds injection of 10 mM Glycine pH 1.7 at the flow rate of 50 μL/min. […] For this setup, 1 μg/mL of purified antibody was injected over a Protein A chip at 10 μL/min for 25 seconds. […] The sensor chip was regenerated by a 60 seconds injection of 10 mM Glycine pH 1.7 at flow rate of 50 μL/min. Data analysis for supernatant and purified samples were performed using BIAevaluation software (GE). All sensorgrams were double reference subtracted and fit using a 1:1 Langmuir binding model.
T1 sequence (P05231 30-212 limits assumed): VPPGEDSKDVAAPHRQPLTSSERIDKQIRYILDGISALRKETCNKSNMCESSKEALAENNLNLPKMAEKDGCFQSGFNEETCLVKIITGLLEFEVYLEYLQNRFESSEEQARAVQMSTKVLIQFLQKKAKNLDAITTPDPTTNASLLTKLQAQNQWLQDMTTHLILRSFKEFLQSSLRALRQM

[2] = biological target: T1, human IL-6; experiment: SPR Biacore, supernatant Ab on Protein A chip, 37 C
[3] = biological target: T2, human IL-6 (human, UniProt P05231 30-212); experiment: SPR (Biacore), supernatant antibody on Protein A chip, IL-6 flowed, 37 C
Method: as §1
T2 sequence (P05231 30-212 limits assumed): as above

[4] = biological target: T2, human IL-6; experiment: SPR (Biacore), purified antibody on Protein A chip, IL-6 flowed, 37 C
Method: as §1

[5] = biological target: T3, human IL-6 (human, UniProt P05231 30-212); experiment: SPR Biacore, supernatant, Protein A capture, 37 C
Procedure, shortened: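 Antibodies from 1:20-diluted culture supernatant in HBS-EP+ were captured on a Protein A chip at 37 C, with 10 mM glycine pH 1.7 regeneration. Sensorgrams were double-reference subtracted and fitted to a 1:1 Langmuir model.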
T3 sequence (P05231 30-212 limits assumed): as above

[6] = biological target: T3, human IL-6; experiment: SPR Biacore, purified, Protein A capture, 37 C
Method: as §1

Binder	Kd [1] [nM]	koff [1] [s⁻¹]	kon [1] [M⁻¹ s⁻¹]	Kd [2] [nM]	koff [2] [s⁻¹]	kon [2] [M⁻¹ s⁻¹]	Kd [5] [nM]	koff [5] [s⁻¹]	kon [5] [M⁻¹ s⁻¹]	Kd [6] [nM]	koff [6] [s⁻¹]	kon [6] [M⁻¹ s⁻¹]	other results
anti-IL-6 antibody, heavy chain WT / light chain M32L, M50D, N52S, M88Q (antibody, IgG1, V domains shown, Full IgG1 (Expi293); VL = variant III) VH: EVQLVESGGGLVQPGGSLRLSCAASGFTFSPFAMSWVRQAPGKGLEWVAKISPGGSWTYYSDTVTGRFTFSLDTSKSTAYLQMNSLRAEDTAVYYCARQLWGYYALDIWGQGTLVTVSS VL: DIQLTQSPSSLSASVGDRVTITCSASISVSYLYWYQQKPGKAPKLLIYDDSSLASGVPSRFSGSGSGTDFTLTISSLQPEDFATYYCQQWSGYPYTFGQGTKVEIK	0.286	0.000319	1.12e+06	0.611	0.000414	677000	–	–	–	–	–	–	–
anti-IL-6 antibody, heavy chain WT / light chain M32L, M50D, N52S, M88Q (antibody, human IgG1, V domains shown, Human IgG1) VH: EVQLVESGGGLVQPGGSLRLSCAASGFTFSPFAMSWVRQAPGKGLEWVAKISPGGSWTYYSDTVTGRFTFSLDTSKSTAYLQMNSLRAEDTAVYYCARQLWGYYALDIWGQGTLVTVSS VL: DIQLTQSPSSLSASVGDRVTITCSASISVSYLYWYQQKPGKAPKLLIYDDSSLASGVPSRFSGSGSGTDFTLTISSLQPEDFATYYCQQWSGYPYTFGQGTKVEIK	–	–	–	–	–	–	–	–	–	–	–	–	Kd [3]: 0.611 nM; koff [3]: 0.000414 s⁻¹; kon [3]: 677000 M⁻¹ s⁻¹; Kd [4]: 0.286 nM; koff [4]: 0.000319 s⁻¹; kon [4]: 1.12e+06 M⁻¹ s⁻¹
anti-IL-6 antibody, heavy chain S35H, G66D / light chain M32L, M50D, N52S, M88Q (antibody, IgG1, V domains shown, Full IgG1 (Expi293); VL = variant III) VH: EVQLVESGGGLVQPGGSLRLSCAASGFTFSPFAMHWVRQAPGKGLEWVAKISPGGSWTYYSDTVTDRFTFSLDTSKSTAYLQMNSLRAEDTAVYYCARQLWGYYALDIWGQGTLVTVSS VL: DIQLTQSPSSLSASVGDRVTITCSASISVSYLYWYQQKPGKAPKLLIYDDSSLASGVPSRFSGSGSGTDFTLTISSLQPEDFATYYCQQWSGYPYTFGQGTKVEIK	0.212	0.000254	1.2e+06	0.166	0.000539	3.24e+06	–	–	–	–	–	–	–
anti-IL-6 antibody, heavy chain T63E, G66D / light chain M32L, M50D, N52S, M88Q (antibody, IgG1, V domains shown, Full IgG1 (Expi293); VL = variant III) VH: EVQLVESGGGLVQPGGSLRLSCAASGFTFSPFAMSWVRQAPGKGLEWVAKISPGGSWTYYSDEVTDRFTFSLDTSKSTAYLQMNSLRAEDTAVYYCARQLWGYYALDIWGQGTLVTVSS VL: DIQLTQSPSSLSASVGDRVTITCSASISVSYLYWYQQKPGKAPKLLIYDDSSLASGVPSRFSGSGSGTDFTLTISSLQPEDFATYYCQQWSGYPYTFGQGTKVEIK	0.198	0.000327	1.65e+06	0.242	0.000485	2e+06	–	–	–	–	–	–	–
Anti-IL-6 antibody, heavy chain WT / light chain WT (antibody, IgG1, V domains shown, IgG1; variable domains only; also called parent; wild-type) VH: EVQLVESGGGLVQPGGSLRLSCAASGFTFSPFAMSWVRQAPGKGLEWVAKISPGGSWTYYSDTVTGRFTFSLDTSKSTAYLQMNSLRAEDTAVYYCARQLWGYYALDIWGQGTLVTVSS VL: DIQLTQSPSSLSASVGDRVTITCSASISVSYMYWYQQKPGKAPKLLIYDMSNLASGVPSRFSGSGSGTDFTLTISSLQPEDFATYYCMQWSGYPYTFGQGTKVEIK	–	–	–	–	–	–	0.649	0.000559	861000	0.214	0.000132	615000	–
anti-IL-6 antibody, heavy chain T63Q, G66D / light chain M32L, M50D, N52S, M88Q (antibody, IgG1, V domains shown, Full IgG1 (Expi293); VL = variant III) VH: EVQLVESGGGLVQPGGSLRLSCAASGFTFSPFAMSWVRQAPGKGLEWVAKISPGGSWTYYSDQVTDRFTFSLDTSKSTAYLQMNSLRAEDTAVYYCARQLWGYYALDIWGQGTLVTVSS VL: DIQLTQSPSSLSASVGDRVTITCSASISVSYLYWYQQKPGKAPKLLIYDDSSLASGVPSRFSGSGSGTDFTLTISSLQPEDFATYYCQQWSGYPYTFGQGTKVEIK	0.201	0.000341	1.69e+06	0.259	0.000461	1.78e+06	–	–	–	–	–	–	–
anti-IL-6 antibody, heavy chain G66D / light chain M32L, M50D, N52S, M88Q (antibody, IgG1, V domains shown, Full IgG1 (Expi293); VL = variant III) VH: EVQLVESGGGLVQPGGSLRLSCAASGFTFSPFAMSWVRQAPGKGLEWVAKISPGGSWTYYSDTVTDRFTFSLDTSKSTAYLQMNSLRAEDTAVYYCARQLWGYYALDIWGQGTLVTVSS VL: DIQLTQSPSSLSASVGDRVTITCSASISVSYLYWYQQKPGKAPKLLIYDDSSLASGVPSRFSGSGSGTDFTLTISSLQPEDFATYYCQQWSGYPYTFGQGTKVEIK	0.244	0.000412	1.69e+06	0.296	0.000483	1.63e+06	–	–	–	–	–	–	–
Anti-IL-6 antibody, heavy chain S35H, G66D, L100T / light chain M32L, M50D, N52S, M88Q (antibody, IgG1, V domains shown, IgG1; variable domains only; VL is variant III) VH: EVQLVESGGGLVQPGGSLRLSCAASGFTFSPFAMHWVRQAPGKGLEWVAKISPGGSWTYYSDTVTDRFTFSLDTSKSTAYLQMNSLRAEDTAVYYCARQTWGYYALDIWGQGTLVTVSS VL: DIQLTQSPSSLSASVGDRVTITCSASISVSYLYWYQQKPGKAPKLLIYDDSSLASGVPSRFSGSGSGTDFTLTISSLQPEDFATYYCQQWSGYPYTFGQGTKVEIK	–	–	–	–	–	–	0.204	0.00278	1.36e+07	0.263	0.000481	1.83e+06	–

Continued, in another order:

Kd [1] [nM]	koff [1] [s⁻¹]	kon [1] [M⁻¹ s⁻¹]	Kd [2] [nM]	koff [2] [s⁻¹]	kon [2] [M⁻¹ s⁻¹]	Kd [5] [nM]	koff [5] [s⁻¹]	kon [5] [M⁻¹ s⁻¹]	Kd [6] [nM]	koff [6] [s⁻¹]	kon [6] [M⁻¹ s⁻¹]	Binder	other results
0.252	0.000401	1.59e+06	0.246	0.000529	2.15e+06	–	–	–	–	–	–	anti-IL-6 antibody, heavy chain T63K, G66D / light chain M32L, M50D, N52S, M88Q (antibody, IgG1, V domains shown, Full IgG1 (Expi293); VL = variant III) VH: EVQLVESGGGLVQPGGSLRLSCAASGFTFSPFAMSWVRQAPGKGLEWVAKISPGGSWTYYSDKVTDRFTFSLDTSKSTAYLQMNSLRAEDTAVYYCARQLWGYYALDIWGQGTLVTVSS VL: DIQLTQSPSSLSASVGDRVTITCSASISVSYLYWYQQKPGKAPKLLIYDDSSLASGVPSRFSGSGSGTDFTLTISSLQPEDFATYYCQQWSGYPYTFGQGTKVEIK	–
–	–	–	–	–	–	0.184	0.000922	5.01e+06	0.238	0.000385	1.62e+06	Anti-IL-6 antibody, heavy chain S35H, G66D, L100V / light chain M32L, M50D, N52S, M88Q (antibody, IgG1, V domains shown, IgG1; variable domains only; VL is variant III) VH: EVQLVESGGGLVQPGGSLRLSCAASGFTFSPFAMHWVRQAPGKGLEWVAKISPGGSWTYYSDTVTDRFTFSLDTSKSTAYLQMNSLRAEDTAVYYCARQVWGYYALDIWGQGTLVTVSS VL: DIQLTQSPSSLSASVGDRVTITCSASISVSYLYWYQQKPGKAPKLLIYDDSSLASGVPSRFSGSGSGTDFTLTISSLQPEDFATYYCQQWSGYPYTFGQGTKVEIK	–
0.209	0.00038	1.82e+06	0.258	0.000562	2.18e+06	–	–	–	–	–	–	anti-IL-6 antibody, heavy chain T65Q, G66D / light chain M32L, M50D, N52S, M88Q (antibody, IgG1, V domains shown, Full IgG1 (Expi293); VL = variant III) VH: EVQLVESGGGLVQPGGSLRLSCAASGFTFSPFAMSWVRQAPGKGLEWVAKISPGGSWTYYSDTVQDRFTFSLDTSKSTAYLQMNSLRAEDTAVYYCARQLWGYYALDIWGQGTLVTVSS VL: DIQLTQSPSSLSASVGDRVTITCSASISVSYLYWYQQKPGKAPKLLIYDDSSLASGVPSRFSGSGSGTDFTLTISSLQPEDFATYYCQQWSGYPYTFGQGTKVEIK	–
–	–	–	–	–	–	0.114	0.000913	8.03e+06	0.117	0.000424	3.61e+06	Anti-IL-6 antibody, heavy chain S35H, G66D, L100S / light chain M32L, M50D, N52S, M88Q (antibody, IgG1, V domains shown, IgG1; variable domains only; VL is variant III) VH: EVQLVESGGGLVQPGGSLRLSCAASGFTFSPFAMHWVRQAPGKGLEWVAKISPGGSWTYYSDTVTDRFTFSLDTSKSTAYLQMNSLRAEDTAVYYCARQSWGYYALDIWGQGTLVTVSS VL: DIQLTQSPSSLSASVGDRVTITCSASISVSYLYWYQQKPGKAPKLLIYDDSSLASGVPSRFSGSGSGTDFTLTISSLQPEDFATYYCQQWSGYPYTFGQGTKVEIK	–
